Laboratory results as given in patent publication US20250049852A1 (SHANGHAI IASO BIOTECHNOLOGY, published 2025).

How the values were obtained:
[1] = target: T1, Biotinylated Recombinant human BAFFR Protein (human, UniProt Q96RJ3 7-71, limits assumed, biotinylated); experiment: ELISA, coated antigen, detection HRP anti-human IgG
T1 construct: The label says that it carries a his tag; also called BAFFR-his-Bio
T1 sequence (looked up): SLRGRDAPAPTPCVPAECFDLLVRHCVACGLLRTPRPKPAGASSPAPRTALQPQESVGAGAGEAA

[2] = target: T2, Biotinylated Human IL-10 Protein (human, UniProt P22301 19-178, biotinylated); experiment: as above
T2 construct: also called IL10-Bio

Streptavidin [3] = target: T3, Streptavidin (UniProt P22629 37-163, limits assumed); experiment: as above
T3 construct: also called SA

[4] = target: T4, human GPRC5D expressed on the cell surface (CHO-K1-GPRC5D cells; MM1S, U266, 8226, H929 cells) (human, UniProt Q9NZD1 1-345); experiment: cell-based or functional assay
[5] = target: T4, human GPRC5D expressed on the cell …; experiment: cell-based or functional assay; remark: listed apart in the source
[6] = target: T4, human GPRC5D expressed on the cell …; experiment: cell-based or functional assay; remark: listed apart in the source
Human GPRC5D Protein-VLP [7] = target: T5, Human GPRC5D Protein-VLP (human, UniProt Q9NZD1 1-345); experiment: phage ELISA, coated antigen, detection anti-M13 then HRP anti-mouse IgG
T5 construct: Bought reagent; also called GPRC5D-VLP; target antigen

[8] = target: T1, Biotinylated Recombinant human BAFFR …; experiment: as above
[9] = target: T2, Biotinylated Human IL-10 Protein; experiment: as above
Streptavidin [10] = target: T3, Streptavidin; experiment: as above
[11] = target: T4, human GPRC5D expressed on the cell …; experiment: FACS titration (300 nM to 0.00384 nM) on CHO-K1-GPRC5D cells
[12] = target: T6, murine-derived GPRC5D overexpressed on CHOS cells (CHOS-mouseGPRC5D) (mouse (murine-derived), UniProt Q9JIL6 1-344); experiment: FACS titration on CHOS-mouse-GPRC5D cells (lower graph)
T6 construct: whole, on cells; also called GPRC5D murine-derived positive cell line
T6 sequence (looked up): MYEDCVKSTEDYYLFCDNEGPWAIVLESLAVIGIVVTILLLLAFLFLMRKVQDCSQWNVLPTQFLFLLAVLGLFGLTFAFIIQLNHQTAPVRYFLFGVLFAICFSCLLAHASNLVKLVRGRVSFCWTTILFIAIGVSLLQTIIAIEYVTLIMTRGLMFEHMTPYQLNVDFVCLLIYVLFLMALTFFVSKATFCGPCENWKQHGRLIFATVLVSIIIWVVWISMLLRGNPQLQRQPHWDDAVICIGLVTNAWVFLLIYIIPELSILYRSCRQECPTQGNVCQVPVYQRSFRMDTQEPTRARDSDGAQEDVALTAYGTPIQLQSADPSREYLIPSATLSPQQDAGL

[13] = target: T7, monkey-derived GPRC5D overexpressed on CHOS cells (CHOS-macaqueGPRC5D) (macaque (monkey-derived)); experiment: FACS titration on CHOS-macaque-GPRC5D cells (upper graph)
T7 construct: whole, on cells; also called CHOS-macaqaueGPRC5D; GPRC5D monkey-derived positive cell line

Human GPRC5D Protein-VLP [14] = target: T5, Human GPRC5D Protein-VLP; experiment: ELISA, coated antigen, purified IgG-form antibody, detection HRP anti-human IgG
[15] = target: T1, Biotinylated Recombinant human BAFFR …; experiment: as above
[16] = target: T2, Biotinylated Human IL-10 Protein; experiment: as above
Streptavidin [17] = target: T3, Streptavidin; experiment: as above

T2 sequence (P22301 19-178 limits assumed): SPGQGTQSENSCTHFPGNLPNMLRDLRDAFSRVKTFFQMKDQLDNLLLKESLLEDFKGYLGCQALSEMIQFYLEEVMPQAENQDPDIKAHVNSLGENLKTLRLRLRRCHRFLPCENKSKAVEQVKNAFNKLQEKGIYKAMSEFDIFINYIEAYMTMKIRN
T4 sequence (Q9NZD1 whole entry): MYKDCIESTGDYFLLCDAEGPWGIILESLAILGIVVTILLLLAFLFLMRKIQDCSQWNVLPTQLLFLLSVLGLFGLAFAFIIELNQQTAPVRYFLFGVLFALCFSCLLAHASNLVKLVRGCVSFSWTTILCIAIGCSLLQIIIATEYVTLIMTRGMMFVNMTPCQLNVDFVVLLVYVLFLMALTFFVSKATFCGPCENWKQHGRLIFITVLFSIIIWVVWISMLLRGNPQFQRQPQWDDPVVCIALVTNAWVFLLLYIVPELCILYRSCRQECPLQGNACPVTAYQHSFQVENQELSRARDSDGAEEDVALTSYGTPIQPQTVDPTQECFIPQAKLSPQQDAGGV
T5 sequence (Q9NZD1 whole entry): as above
T3 sequence (P22629 37-163 limits assumed): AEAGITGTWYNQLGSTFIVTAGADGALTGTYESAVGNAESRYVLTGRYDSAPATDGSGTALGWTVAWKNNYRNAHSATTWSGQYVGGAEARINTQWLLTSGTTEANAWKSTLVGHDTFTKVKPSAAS

B1: Positive Benchmark1 Ab (GC5B596) (antibody)
scFv: GSQVQLVQSGAEVKKPGASVKVSCKASGYSFTGYTMNWVRQAPGQGLEWMGLINPYNSDTNYAQKLQGRVTMTTDTSTSTAYMELRSLRSDDTAVYYCARVALRVALDYWGQGTLVTVSSGGGGSGGGGSGGGGSDIQMTQSPSSLSASVGDRVTITCKASQNVATHVGWYQQKPGKAPKRLIYSASYRYSGVPSRFSGSGSGTEFTLTISNLQPEDFATYYCQQYNRYPYTFGQGTKLEIKSR
notes: […] variable region from GC5B596 of CN 109715667 A. As positive control antibody it was detected with anti-human IgG, so it carried a human constant part; also called control antibody benchmark 1
binding result [1]: no binding
binding result [2]: no binding
binding result (Streptavidin [3]): no binding

B2: GPRC5D CAR 2436 (#39), on CAR-T cells (other)
chain: EVQLLESGGGLVQPGGSLRLSCAASGFIFSSYGMGWVRQAPGKGLEWVSSISSSGDYTYYADSVKGRFTISRDNSKNTLYLQMNSLRAEDTAVYYCARMSFRRYDHWGQGTLVTVSSFVPVFLPAKPTTTPAPRPPTPAPTIASQPLSLRPEACRPAAGGAVHTRGLDFACDIYIWAPLAGTCGVLLLSLVITLYCNHRNKRGRKKLLYIFKQPFMRPVQTTQEEDGCSCRFPEEEEGGCELRVKFSRSADAPAYQQGQNQLYNELNLGRREEYDVLDKRRGRDPEMGGKPRRKNPQEGLYNELQKDKMAEAYSEIGMKGERRRGKGHDGLYQGLSTATKDTYDALHMQALPPR
CD107a+/CAR+CD8+% after co-incubation with 8226 (GPRC5D+) cells [4]: 76.5%
CD107a+/CAR+CD8+% after co-incubation with MM.1S (GPRC5D+) cells [4]: 63.5%
CD107a+/CAR+CD8+% after co-incubation with U266 (GPRC5D+) cells [4]: 78.8%
IFN-γ (IFN+/CAR+ %) after co-incubation with 8226-luc (GPRC5D+) cells [5]: 54.8%
IFN-γ (IFN+/CAR+ %) after co-incubation with H929-luc (GPRC5D+) cells [5]: 57.6%
IFN-γ (IFN+/CAR+ %) after co-incubation with MM1.s-luc (GPRC5D+) cells [5]: 50.9%
IFN-γ (IFN+/CAR+ %) after co-incubation with U266-luc (GPRC5D+) cells [5]: 49%
TNF-α (TNFα+/CAR+ %) after co-incubation with 8226-luc (GPRC5D+) cells [5]: 45%
TNF-α (TNFα+/CAR+ %) after co-incubation with H929-luc (GPRC5D+) cells [5]: 51.6%
TNF-α (TNFα+/CAR+ %) after co-incubation with MM1.s-luc (GPRC5D+) cells [5]: 38.5%
TNF-α (TNFα+/CAR+ %) after co-incubation with U266-luc (GPRC5D+) cells [5]: 42.5%
Proliferation fold, 1st round stimulation by target cells 8226 [6]: 10.1 fold
Proliferation fold, 2nd round stimulation by target cells 8226 [6]: 51.2 fold
Proliferation fold, 3rd round stimulation by target cells 8226 [6]: 146 fold
Proliferation fold, 4th round stimulation by target cells 8226 [6]: 330 fold
Proliferation fold, 5th round stimulation by target cells 8226 [6]: 595 fold
Proliferation fold, 6th round stimulation by target cells 8226 [6]: 1160 fold
Proliferation fold, 7th round stimulation by target cells 8226 [6]: 2050 fold

B3: clone #18, single domain antibody displayed as monoclonal phage (phage level) (VHH)
VHH: QVQLQQWGAGLLKPSETLSLTCAVYGGSFSGYYWSWIRQPPGKGLEWIGEINHSGSTNYNPSLKSRVTISVDTSKNQFSLKLSSVTAADTAVYYCARARRYGGRTRFDPWGQGTLVTVSS
notes: Tested as a monoclonal phage antibody (M13 display, detected with anti-M13); also called clone number 18
binding result (Human GPRC5D Protein-VLP [7]): binds
binding result [8]: no binding
binding result [9]: no binding
binding result (Streptavidin [10]): no binding

B4: Clone 18, antibody in the IgG form (protein level) (antibody, V domains shown)
VH: QVQLQQWGAGLLKPSETLSLTCAVYGGSFSGYYWSWIRQPPGKGLEWIGEINHSGSTNYNPSLKSRVTISVDTSKNQFSLKLSSVTAADTAVYYCARARRYGGRTRFDPWGQGTLVTVSS
notes: Expressed from an IgG expression plasmid in CHOS cells, purified by Protein A 'into the IgG form', detected with anti-human IgG Fc gamma; also called anti-GPRC5D IgG
EC50 [11]: 1.58 nM
TOP (MFI) [11]: 3460 MFI
EC50 (read off the curve) [12]: ~2 nM
EC50 (read off the curve) [13]: ~10 nM
binding result (Human GPRC5D Protein-VLP [14]): binds
binding result [15]: no binding
binding result [16]: no binding
binding result (Streptavidin [17]): no binding

B5: clone #39, single domain antibody displayed as monoclonal phage (phage level) (VHH)
VHH: EVQLLESGGGLVQPGGSLRLSCAASGFIFSSYGMGWVRQAPGKGLEWVSSISSSGDYTYYADSVKGRFTISRDNSKNTLYLQMNSLRAEDTAVYYCARMSFRRYDHWGQGTLVTVSS
notes: Tested as a monoclonal phage antibody (M13 display, detected with anti-M13); also called clone number 39
binding result (Human GPRC5D Protein-VLP [7]): binds
binding result [8]: no binding
binding result [9]: no binding
binding result (Streptavidin [10]): no binding

B6: Clone 39, antibody in the IgG form (protein level) (antibody, V domains shown)
VH: EVQLLESGGGLVQPGGSLRLSCAASGFIFSSYGMGWVRQAPGKGLEWVSSISSSGDYTYYADSVKGRFTISRDNSKNTLYLQMNSLRAEDTAVYYCARMSFRRYDHWGQGTLVTVSS
notes: as for B4
EC50 [11]: 6.93 nM
TOP (MFI) [11]: 2800 MFI
binding result [12]: binds
binding result (Human GPRC5D Protein-VLP [14]): binds
binding result [15]: no binding
binding result [16]: no binding
binding result (Streptavidin [17]): no binding

B7: clone #41, single domain antibody displayed as monoclonal phage (phage level) (VHH)
VHH: EVQLLESGGGLVQPGGSLRLSCAASGFSFSGYIMGWVRQAPGKGLEWVSSTSSSGTETYYADSVKGRFTISRDNSKNTLYLQMNSLRAEDTAVYYCARYYSKYGRSYHVDSWGQGTLVTVSS
notes: Tested as a monoclonal phage antibody (M13 display, detected with anti-M13); also called clone number 41
binding result (Human GPRC5D Protein-VLP [7]): binds
binding result [8]: no binding
binding result [9]: no binding
binding result (Streptavidin [10]): no binding

B8: Clone 41, antibody in the IgG form (protein level) (antibody, V domains shown)
VH: EVQLLESGGGLVQPGGSLRLSCAASGFSFSGYIMGWVRQAPGKGLEWVSSTSSSGTETYYADSVKGRFTISRDNSKNTLYLQMNSLRAEDTAVYYCARYYSKYGRSYHVDSWGQGTLVTVSS
notes: as for B4
EC50 [11]: 41 nM
TOP (MFI) [11]: 3690 MFI
binding result [12]: binds
EC50 (read off the curve) [13]: ~7 nM
binding result (Human GPRC5D Protein-VLP [14]): binds
binding result [15]: no binding
binding result [16]: no binding
binding result (Streptavidin [17]): no binding

B9: CAR 2254 (Benchmark1), on CAR-T cells (other)
chain: GSQVQLVQSGAEVKKPGASVKVSCKASGYSFTGYTMNWVRQAPGQGLEWMGLINPYNSDTNYAQKLQGRVTMTTDTSTSTAYMELRSLRSDDTAVYYCARVALRVALDYWGQGTLVTVSSGGGGSGGGGSGGGGSDIQMTQSPSSLSASVGDRVTITCKASQNVATHVGWYQQKPGKAPKRLIYSASYRYSGVPSRFSGSGSGTEFTLTISNLQPEDFATYYCQQYNRYPYTFGQGTKLEIKSRFVPVFLPAKPTTTPAPRPPTPAPTIASQPLSLRPEACRPAAGGAVHTRGLDFACDIYIWAPLAGTCGVLLLSLVITLYCNHRNKRGRKKLLYIFKQPFMRPVQTTQEEDGCSCRFPEEEEGGCELRVKFSRSADAPAYQQGQNQLYNELNLGRREEYDVLDKRRGRDPEMGGKPRRKNPQEGLYNELQKDKMAEAYSEIGMKGERRRGKGHDGLYQGLSTATKDTYDALHMQALPPR
CD107a+/CAR+CD8+% after co-incubation with 8226 (GPRC5D+) cells [4]: 45%
CD107a+/CAR+CD8+% after co-incubation with MM.1S (GPRC5D+) cells [4]: 50.7%
CD107a+/CAR+CD8+% after co-incubation with U266 (GPRC5D+) cells [4]: 9.68%
IFN-γ (IFN+/CAR+ %) after co-incubation with 8226-luc (GPRC5D+) cells [5]: 25.1%
IFN-γ (IFN+/CAR+ %) after co-incubation with H929-luc (GPRC5D+) cells [5]: 12.2%
IFN-γ (IFN+/CAR+ %) after co-incubation with MM1.s-luc (GPRC5D+) cells [5]: 31.1%
IFN-γ (IFN+/CAR+ %) after co-incubation with U266-luc (GPRC5D+) cells [5]: 5.25%
TNF-α (TNFα+/CAR+ %) after co-incubation with 8226-luc (GPRC5D+) cells [5]: 12%
TNF-α (TNFα+/CAR+ %) after co-incubation with H929-luc (GPRC5D+) cells [5]: 5.21%
TNF-α (TNFα+/CAR+ %) after co-incubation with MM1.s-luc (GPRC5D+) cells [5]: 17.7%
TNF-α (TNFα+/CAR+ %) after co-incubation with U266-luc (GPRC5D+) cells [5]: 1.12%
Proliferation fold, 1st round stimulation by target cells 8226 [6]: 7.15 fold
Proliferation fold, 2nd round stimulation by target cells 8226 [6]: 41.9 fold
Proliferation fold, 3rd round stimulation by target cells 8226 [6]: 101 fold
Proliferation fold, 4th round stimulation by target cells 8226 [6]: 172 fold
Proliferation fold, 5th round stimulation by target cells 8226 [6]: 240 fold
Proliferation fold, 6th round stimulation by target cells 8226 [6]: 321 fold
Proliferation fold, 7th round stimulation by target cells 8226 [6]: 313 fold
